Assay results: patent US20100135997A1 (MEDGENE, published 2010)

B1: SEQ ID NO 66 (receptor)
chain: MHLPKPTLWAEPGSVITMDQPVTLRCQGGQETQEYRLYREKKTAPWITRIPQELVKKGQFPIPSITWEHAGRYRCYYGSDTSQWSASSDPLELVVTGVYIKPTLSAQPSPVVNSGGNVTLQCDSQVAFDGFILCKEGEDEHPQCLNSQPHARGSSRAIFSVGPVSPSRRWWYRCYAYDSNSPYEWSLPSDLLELDVDG
notes: mutated soluble two domain ILT-2
B2: SEQ ID NO 25 (receptor)
chain: MHLPKPTLWAEPGSVITLQSPVTLRCQGGQETQQYRLYREKKTAPWITRIPQELVKKGQFPIPSITWEHAGRYRCYYGSDTRQWSASSDPLELVVTGVYIKPTLSAQPSPVVNSGGNVTLQCDSQVAFDGFILCKEGEDDHPQCLNSQPHARGSSRAIFSVGPVSPSRRWRYRCYAYVAWAPYEWSLPSDLLELDVDG
notes: as for B1
B3: SEQ ID NO 6 (receptor)
chain: MHLPKPTLWAEPGSVITLQSPVTLRCQGGQETQQYRLYREKKTAPWITRIPQELVKKGQFPIPSITWEHAGRYRCYYGSDTRQWSASSDPLELVVTGVYIKPTLSAQPSPVVNSGGNVTLQCDSQVAFDGFILCKEGEDDHPQCLNSQPHARGSSRAIFSVGPVSPSRRWRYRCYAYDSNSPYEWSLPSDLLELDVDG
notes: as for B1
B4: SEQ ID NO 28 (receptor)
chain: MHLPKPTLWAEPGSVITLQSPVTLRCQGGQETQQYRLYREKKTAPWITRIPQELVKKGQFPIPSITWEHAGRYRCYYGSDTRQWSASSDPLELVVTGVYIKPTLSAQPSPVVNSGGNVTLQCDSQVAFDGFILCKEGEDDHPQCLNSQPHARGSSRAIFSVGPVSPSRRWRYRCYAYMSWAPYEWSLPSDLLELDVDG
notes: as for B1
B5: SEQ ID NO 26 (receptor)
chain: MHLPKPTLWAEPGSVITLQSPVTLRCQGGQETQQYRLYREKKTAPWITRIPQELVKKGQFPIPSITWEHAGRYRCYYGSDTRQWSASSDPLELVVTGVYIKPTLSAQPSPVVNSGGNVTLQCDSQVAFDGFILCKEGEDDHPQCLNSQPHARGSSRAIFSVGPVSPSRRWRYRCYAYMNWAPYEWSLPSDLLELDVDG
notes: as for B1
B6: SEQ ID NO 27 (receptor)
chain: MHLPKPTLWAEPGSVITLQSPVTLRCQGGQETQQYRLYREKKTAPWITRIPQELVKKGQFPIPSITWEHAGRYRCYYGSDTRQWSASSDPLELVVTGVYIKPTLSAQPSPVVNSGGNVTLQCDSQVAFDGFILCKEGEDDHPQCLNSQPHARGSSRAIFSVGPVSPSRRWRYRCYAYPAWTPYEWSLPSDLLELDVDG
notes: as for B1
B7: SEQ ID NO 24 (receptor)
chain: MHLPKPTLWAEPGSVITLQSPVTLRCQGGQETQQYRLYREKKTAPWITRIPQELVKKGQFPIPSITWEHAGRYRCYYGSDTRQWSASSDPLELVVTGVYIKPTLSAQPSPVVNSGGNVTLQCDSQVAFDGFILCKEGEDDHPQCLNSQPHARGSSRAIFSVGPVSPSRRWRYRCYAYPIWTPYEWSLPSDLLELDVDG
notes: as for B1
B8: SEQ ID NO 135 (receptor)
chain: MGHLPKPTLWAEPGSVITMDQPVTLRCQGGQETQEYRLYREKKTAPWITRIPQELVKKGQFPIPSITWEHAGRYRCYYGSDTSQWSASSDPLELVVTGVYIKPTLSAQPSPVVNSGGNVTLQCDSPFIADGFILCKEGEDEHPQCLNSQPHARGSSRAIFSVGPVSPSRRWWYRCYAYMSWSPYEWSLPSDLLELDVDG
notes: as for B1
B9: SEQ ID NO 130 (receptor)
chain: MGHLPKPTLWAEPGSVITMDQPVTLRCQGGQETQEYRLYREKKTAPWITRIPQELVKKGQFPIPSITWEHAGRYRCYYGSDTSQWSASSDPLELVVTGVYIKPTLSAQPSPVVNSGGNVTLQCDSPWLADGFILCKEGEDEHPQCLNSQPHARGSSRAIFSVGPVSPSRRWWYRCYAYMSWSPYEWSLPSDLLELDVDG
notes: as for B1
B10: SEQ ID NO 134 (receptor)
chain: MGHLPKPTLWAEPGSVITMDQPVTLRCQGGQETQEYRLYREKKTAPWITRIPQELVKKGQFPIPSITWEHAGRYRCYYGSDTSQWSASSDPLELVVTGVYIKPTLSAQPSPVVNSGGNVTLQCDSPFVSDGFILCKEGEDEHPQCLNSQPHARGSSRAIFSVGPVSPSRRWWYRCYAYMSWSPYEWSLPSDLLELDVDG
notes: as for B1
B11: SEQ ID NO 37 (receptor)
chain: MGHLPKPTLWAEPGSVITMDQPVTLRCQGGQETQEYRLYREKKTAPWITRIPQELVKKGQFPIPSITWEHAGRYRCYYGSDTAGRSESSDPLELVVTGVYIKPTLSAQPSPVVNSGGNVTLQCDSQVAFDGFILCKEGEDEHPQCLNSQPHARGSSRAIFSVGPVSPSRRWWYRCYAYPAWTPYEWSLPSDLLELDVDG
notes: as for B1
B12: SEQ ID NO 33 (receptor)
chain: MGHLPKPTLWAEPGSVITMDQPVTLRCQGGQETQEYRLYREKKTAPWITRIPQELVKKGQFPIPSITWEHAGRYRCYYGSDTAGRSESSDPLELVVTGVYIKPTLSAQPSPVVNSGGNVTLQCDSQVAFDGFILCKEGEDEHPQCLNSQPHARGSSRAIFSVGPVSPSRRWWYRCYAYVAWAPYEWSLPSDLLELDVDG
notes: as for B1
B13: SEQ ID NO 35 (receptor)
chain: MGHLPKPTLWAEPGSVITMDQPVTLRCQGGQETQEYRLYREKKTAPWITRIPQELVKKGQFPIPSITWEHAGRYRCYYGSDTAGRSESSDPLELVVTGVYIKPTLSAQPSPVVNSGGNVTLQCDSQVAFDGFILCKEGEDEHPQCLNSQPHARGSSRAIFSVGPVSPSRRWWYRCYAYMNWAPYEWSLPSDLLELDVDG
notes: as for B1
B14: SEQ ID NO 39 (receptor)
chain: MGHLPKPTLWAEPGSVITMDQPVTLRCQGGQETQEYRLYREKKTAPWITRIPQELVKKGQFPIPSITWEHAGRYRCYYGSDTAGRSESSDPLELVVTGVYIKPTLSAQPSPVVNSGGNVTLQCDSQVAFDGFILCKEGEDEHPQCLNSQPHARGSSRAIFSVGPVSPSRRWWYRCYAYMSWAPYEWSLPSDLLELDVDG
notes: as for B1
B15: SEQ ID NO 131 (receptor)
chain: MGHLPKPTLWAEPGSVITMDQPVTLRCQGGQETQEYRLYREKKTAPWITRIPQELVKKGQFPIPSITWEHAGRYRCYYGSDTSQWSASSDPLELVVTGVYIKPTLSAQPSPVVNSGGNVTLQCDSPFQADGFILCKEGEDEHPQCLNSQPHARGSSRAIFSVGPVSPSRRWWYRCYAYMSWSPYEWSLPSDLLELDVDG
notes: mutated soluble two domain ILT-2; also called c132
B16: SEQ ID NO 133 (receptor)
chain: MGHLPKPTLWAEPGSVITMDQPVTLRCQGGQETQEYRLYREKKTAPWITRIPQELVKKGQFPIPSITWEHAGRYRCYYGSDTSQWSASSDPLELVVTGVYIKPTLSAQPSPVVNSGGNVTLQCDSPFLSDGFILCKEGEDEHPQCLNSQPHARGSSRAIFSVGPVSPSRKWWYRCYAYMSWSPYEWSLPSDLLELDVDG
notes: as for B1
B17: SEQ ID NO 41 (receptor)
chain: MGHLPKPTLWAEPGSVITMDQPVTLRCQGGQETQEYRLYREKKTAPWITRIPQELVKKGQFPIPSITWEHAGRYRCYYGSDTAGRSESSDPLELVVTGVYIKPTLSAQPSPVVNSGGNVTLQCDSQVAFDGFILCKEGEDEHPQCLNSQPHARGSSRAIFSVGPVSPSRRWWYRCYAYMSWSPYEWSLPSDLLELDVDG
notes: as for B1
B18: SEQ ID NO 132 (receptor)
chain: MGHLPKPTLWAEPGSVITMDQPVTLRCQGGQETQEYRLYREKKTAPWITRIPQELVKKGQFPIPSITWEHAGRYRCYYGSDTSQWSASSDPLELVVTGVYIKPTLSAQPSPVVNSGGNVTLQCDSPFIAEGFILCKEGEDEHPQCLNSQPHARGSSRAIFSVGPVSPSRRWWYRCYAYMSWSPYEWSLPSDLLELDVDG
notes: as for B1
B19: SEQ ID NO 128 (receptor)
chain: MGHLPKPTLWAEPGSVITMDQPVTLRCQGGQETQEYRLYREKKTAPWITRIPQELVKKGQFPIPSITWEHAGRYRCYYGSDTSQWSASSDPLELVVTGVYIKPTLSAQPSPVVNSGGNVTLQCDSPWVADGFILCKEGEDEHPQCLNSQPHARGSSRAIFSVGPVSPSRRWWYRCYAYMSWSPYEWSLPSDLLELDVDG
notes: as for B1
B20: SEQ ID NO 31 (receptor)
chain: MGHLPKPTLWAEPGSVITMDQPVTLRCQGGQETQEYRLYREKKTAPWITRIPQELVKKGQFPIPSITWEHAGRYRCYYGSDTAGRSESSDPLELVVTGVYIKPTLSAQPSPVVNSGGNVTLQCDSQVAFDGFILCKEGEDEHPQCLNSQPHARGSSRAIFSVGPVSPSRRWWYRCYAYPIWTPYEWSLPSDLLELDVDG
notes: as for B1
B21: SEQ ID NO 129 (receptor)
chain: MGHLPKPTLWAEPGSVITMDQPVTLRCQGGQETQEYRLYREKKTAPWITRIPQELVKKGQFPIPSITWEHAGRYRCYYGSDTSQWSASSDPLELVVTGVYIKPTLSAQPSPVVNSGGNVTLQCDSPFLTDGFILCKEGEDEHPQCLNSQPHARGSSRAIFSVGPVSPSRRWWYRCYAYMSWSPYEWSLPSDLLELDVDG
notes: as for B1
B22: SEQ ID NO 123 (receptor)
chain: MGHLPKPTLWAEPGSVITMDQPVTLRCQGGQETQQYRLYREKKTAPWITRIPQELVKKGQFPIPSITWEHAGRYRCYYGSDTRQWSASSDPLELVVTGVYIKPTLSAQPSPVVNSGGNVTLQCDSQVAFDGFILCKEGEDDHPQCLNSQPHARGSSRAIFSVGPVSPSRRWRYRCYAYDSNSPYEWSLPSDLLELDVDG
notes: mutated soluble two domain ILT-2; also called Clone 64; c64
B23: SEQ ID NO 136 (receptor)
chain: MGHLPKPTLWAEPGSVITMDQPVTLRCQGGQETQEYRLYREKKTAPWITRIPQELVKKGQFPIPSITWEHAGRYRCYYGSDTSQWSASSDPLELVVTGVYIKPTLSAQPSPVVNSGGNVTLQCDSMFLVDGFILCKEGEDEHPQCLNSQPHARGSSRAIFSVGPVSPSRRWWYRCYAYMSWSPYEWSLPSDLLELDVDG
notes: as for B1

Target: T1, HLA-A*0201 loaded with the Carcinoembryonic antigen (CEA)-derived … peptide (biotin on the C-terminal biotinylation tag)
T1 construct: Soluble, biotinylated, immobilised on a streptavidin chip
Assay: Biacore SPR
Method in brief: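 pMHC complexes were immobilised in SPR flow cells through biotin-tag binding. Soluble ILT-like molecule was passed over the surfaces at constant flow rate and response recorded in RU for affinity and kinetic analysis.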

**Q.** For B1, which Kd is on record?
**A.** The Kd was ≤ 1000 nM.

**Q.** And the koff?
**A.** The koff was ≤ 2 s⁻¹.

**Q.** Which Kd does the source give for B2 here?
**A.** The Kd was ≤ 1000 nM.

**Q.** And the koff?
**A.** Its koff is ≤ 2 s⁻¹.

**Q.** Which results are given for B3?
**A.** Kd: ≤ 1000 nM; koff: ≤ 2 s⁻¹

**Q.** For B4, which Kd is on record?
**A.** The Kd was ≤ 1000 nM.

**Q.** What about the koff of the same binder?
**A.** The koff was ≤ 2 s⁻¹.

**Q.** How did the Kd turn out when B5 was run?
**A.** Its Kd is ≤ 1000 nM.

**Q.** And the koff?
**A.** The koff was ≤ 2 s⁻¹.

**Q.** Which Kd does the source give for B6 here?
**A.** The Kd was ≤ 1000 nM.

**Q.** What about the koff of the same binder?
**A.** Its koff is ≤ 2 s⁻¹.

**Q.** Which Kd does the source give for B7 here?
**A.** The Kd was ≤ 1000 nM.

**Q.** And the koff?
**A.** The koff was ≤ 2 s⁻¹.

**Q.** Which results are given for B8?
**A.** Kd: ≤ 1000 nM; koff: ≤ 2 s⁻¹

**Q.** What does the source list for B9?
**A.** Kd: ≤ 1000 nM; koff: ≤ 2 s⁻¹

**Q.** How did the Kd turn out when B10 was run?
**A.** Its Kd is ≤ 1000 nM.

**Q.** And the koff?
**A.** The koff was ≤ 2 s⁻¹.

**Q.** With B11 as the binder, how does the Kd read?
**A.** Its Kd is ≤ 1000 nM.

**Q.** And the koff?
**A.** The koff was ≤ 2 s⁻¹.

**Q.** What does the source list for B12?
**A.** Kd: ≤ 1000 nM; koff: ≤ 2 s⁻¹

**Q.** Which results are given for B13?
**A.** Kd: ≤ 1000 nM; koff: ≤ 2 s⁻¹

**Q.** What does the source list for B14?
**A.** Kd: ≤ 1000 nM; koff: ≤ 2 s⁻¹

**Q.** Which results are given for B15?
**A.** Kd: ≤ 1000 nM; koff: ≤ 2 s⁻¹

**Q.** With B16 as the binder, how does the Kd read?
**A.** The Kd was ≤ 1000 nM.

**Q.** What about the koff of the same binder?
**A.** The koff was ≤ 2 s⁻¹.

**Q.** Which results are given for B17?
**A.** Kd: ≤ 1000 nM; koff: ≤ 2 s⁻¹

**Q.** B18 was tested. Which Kd did it give?
**A.** The Kd was ≤ 1000 nM.

**Q.** And the koff?
**A.** The koff was ≤ 2 s⁻¹.

**Q.** With B19 as the binder, how does the Kd read?
**A.** The Kd was ≤ 1000 nM.

**Q.** What about the koff of the same binder?
**A.** Its koff is ≤ 2 s⁻¹.

**Q.** How did the Kd turn out when B20 was run?
**A.** Its Kd is ≤ 1000 nM.

**Q.** And the koff?
**A.** The koff was ≤ 2 s⁻¹.

**Q.** For B21, which Kd is on record?
**A.** The Kd was ≤ 1000 nM.

**Q.** And the koff?
**A.** Its koff is ≤ 2 s⁻¹.

**Q.** What does the source list for B22?
**A.** Kd: ≤ 1000 nM; koff: ≤ 2 s⁻¹

**Q.** B23 was tested. Which Kd did it give?
**A.** The Kd was ≤ 1000 nM.

**Q.** And the koff?
**A.** The koff was ≤ 2 s⁻¹.
